Here are results for 53 sequences from the supplement of paper PMC11780869.

The test system of the series is Bacillus subtilis. Put plainly: cleaved RNA product abundance (RNA/gDNA barcode ratio) relative to median wild-type variant (ratio to wild type); higher = more accumulation of the downstream cleavage product. Summed up:
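Cleaved product abundance is expressed as the RNA:gDNA barcode ratio per construct, scaled to the median construct carrying the unmutated site. The constructs were barcoded, mutagenized RNase Y cleavage-site windows in truncated aprE or tetM reporter mRNAs integrated into the B. subtilis chromosome. Cultures grew in LB at 37°C from OD600 0.0003 to 0.3 before cleaved RNA was gel-selected and barcode-sequenced.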

Where [1] appears, read: experiment (reporter, strain, medium): exp 8a: truncated aprE reporter, strain BJT201 with 2% xylose (RNase J1 expressed), cleavage site: glnRA (positions -5 to +31 mutated).
The mark [2] stands for this setting: experiment (reporter, strain, medium): exp 4a: truncated aprE reporter, strain BJT201 with 2% xylose (RNase J1 expressed), cleavage site: cggR-gapA (positions -7 to +36 mutated).
[3] abbreviates: experiment (reporter, strain, medium): exp 2b: truncated aprE reporter, strain BJT200, cleavage site: cggR-gapA (positions -7 to +36 mutated).
[4] abbreviates: experiment (reporter, strain, medium): exp 6: tetM reporter, strain 168, cleavage site: cggR-gapA (positions -7 to +36 mutated).

In the case of “CGACATGTCCCGCTTCTTTCATTAATCCGTTAGCAACTAGTTTGCTATATACATTTACCTTTTAAGAGGAGGAAT”, the “cleaved RNA product abundance” value under setting [1] came out at 1.29.

Turning to “ACAGACGAAGGAGCCGCAAAGAAGTTATTAAGGAATGAATCATCCCTCAATATAAATATCTCTCACTTATTTAAA”, the “cleaved RNA product abundance” value under setting [2] came to 0.151. On to “ACAGACGAAGGAGCCGCAAAGAAGTTATTAAGGTATGTATAATCCCTCAATATAAATATCTCTCACTTATTTAAA”, for which the “cleaved RNA product abundance” value reads like this: under setting [3], 0.108; under setting [2], 0.127. As to “ACAGACGAAGGAGCCGCAAAGAAGTTATTAAGGGATCAATAATCCCTCAATATAGATATCTCTCACTTATTTAAA”, the “cleaved RNA product abundance” value under setting [3] came to 0.534. As for “ACAGACGAAGGAGCCGCAAAGATGTTATTAAGGGATGAATAATACCTCAATATAAATATCTCTCACTTATTTAAA”, the “cleaved RNA product abundance” value runs as follows: under setting [3], 0.128; under setting [2], 0.142. In the case of “ACAGACGAAGGAGCCGCAAAGAAGTTATTAAGGGATGAATACTCCCTCAAGATAAATATCTCTCACTTATTTAAA”, the “cleaved RNA product abundance” value under setting [3] is 0.156. Consider “ACAGACGAAGGAGCCGCAAAGAAGTTATTAAGGCATGAATAATCCCACAATATAAATATCTCTCACTTATTTAAA”, for which the “cleaved RNA product abundance” value is, setting by setting: under setting [3], 0.0968; under setting [2], 0.0597.

In the case of “ACAGACGAAGGAGCCGCAAAGAAGTTATTAAGGGATGAATAACACCTCAATATAAATATCTCTCACTTATTTAAA”, under setting [2], the “cleaved RNA product abundance” value was found to be 0.164.

Take “CGACATGTCCCGCTTCTTTCATTAATCCGTAAGCAACTGTTTTGCCATATACATTTACCTTTTAAGAGGAGGAAT”: the “cleaved RNA product abundance” value under setting [1] was 0.295. In the case of “ACAGACGAAGGAGCCGCAAAGAAGTTATTAAGGGATTAACAATCCCTCAATATAAATATCTCTCACTTATTTAAA”, the “cleaved RNA product abundance” value by setting is: under setting [3], 1.08; under setting [2], 0.961. With “CGACATGTCCCGCTTCTTTCATTAATCCGTTAGCAATTGTTTTGCTATATACTTTTACCTTTTAAGAGGAGGAAT”, the “cleaved RNA product abundance” value under setting [1] was determined as 0.272. As to “ACAGACGAAGGAGCCGCAAAGAAGTTAATAAGGGATGAATAATCACTCAATATAAATATCTCTCACTTATTTAAA”, the “cleaved RNA product abundance” value by setting is: under setting [3], 0.112; under setting [2], 0.109. For the sequence “CGACATGTCCCGCTTCTTTCATTAATCCGTTAGCAAATGGTTTGCTATATACATTTACCTTTTAAGAGGAGGAAT”, the “cleaved RNA product abundance” value under setting [1] turned out to be 0.732.

Regarding “CGACATGTCCCGCTTCTTTCATTAATCCTTTAGCAACTCTTTTGCTATATACATTTACCTTTTAAGAGGAGGAAT”, the “cleaved RNA product abundance” value under setting [1] came out at 1.2.

On to “CGACATGTCCCGCTTCTTTCATTAATCCGTTAGCAAGTGTTTTGCTATTTACATTTACCTTTTAAGAGGAGGAAT”, for which, under setting [1], the “cleaved RNA product abundance” value was found to be 0.163. For the sequence “ACAGACGAAGGAGCCGCAAAGAAGTTAATAAGGTATGAATAATCCCTCAATATAAATATCTCTCACTTATTTAAA”, the “cleaved RNA product abundance” value was found to be 0.0951 under setting [3] and 0.15 under setting [2].

For the sequence “CGACATGTCCCGCTTCTTTCATTAATCCGTTTGCAACTCTTTTGCTATATACATTTACCTTTTAAGAGGAGGAAT”, the “cleaved RNA product abundance” value under setting [1] worked out at 0.483. Still for that read-out and setting: for “CGACATGTCCCGCTTCTTTCATTACTCCTTTAGCAACTGTTTTGCTATATACATTTACCTTTTAAGAGGAGGAAT” the value was 0.376; for “CGACATGTCCCGCTTCTTTCATTAATCCGTTAGAAAATGTTTTGCTATATACATTTACCTTTTAAGAGGAGGAAT”, 0.396. Turning to “ACAGACGAAGGAGCCGCAAAGAAGTAATTAAGGGATGAATAATGCCTCAATATAAATATCTCTCACTTATTTAAA”, the “cleaved RNA product abundance” value under setting [2] turned out to be 0.164. With “ACAGACGAAGGAGCCGCAAAGAAGTTATTAAGGGATGAATAATCCCTCAATATAAACATCTCTCACTTATTTAAA”, the “cleaved RNA product abundance” value is, setting by setting: under setting [3], 0.652; under setting [2], 0.702; under setting [4], 0.847.

With “ACAGACGAAGGAGCCGCAAATAAGTTATTACGGGATGAATAATCCCTCAATATAAATATCTCTCACTTATTTAAA”, the “cleaved RNA product abundance” value under setting [2] was 0.36. Consider “ACAGACGAAGGAGCCGCAAAGAAGTTGTTAAGGGATGAATAATCCCTTAATATAAATATCTCTCACTTATTTAAA”, for which the “cleaved RNA product abundance” value under setting [2] is 0.892. Turning to “CGACATGTCCCGCTTCTTTCATTAATGCGTTAGCAAATGTTTTGCTATATACATTTACCTTTTAAGAGGAGGAAT”, under setting [1], the “cleaved RNA product abundance” value was determined as 0.927. Same read-out and setting: the figure for “CGACATGTCCCGCTTCTTTCATTAATCCGTTAGCAACTCTTTTGCTATATACATTTACCTTTTAAGAGGAGGAAT” is 1.15.

As for “CGACATGTCCCGCTTCTTTCATTAAACCGTTAGCAACTGTTTTGCTACATACATTTACCTTTTAAGAGGAGGAAT”, under setting [1], the “cleaved RNA product abundance” value came to 0.237.

Turning to “ACAGACGAAGGAGCCGCAAAGAAGTTATTAAGACATGAATAATCCCTCAATATAAATATCTCTCACTTATTTAAA”, the “cleaved RNA product abundance” value under setting [3] stood at 0.111 and the “cleaved RNA product abundance” value under setting [2] is 0.132. Regarding “CGACATGTCCCGCTTCTTTCATTAATCAGTTAACTTTTTTGCTATATATATTTACCTTTTAAGAGGAGGAATTTT”, the “cleaved RNA product abundance” value under setting [1] amounted to 0.238. Take “ACAGACGAAGGAGCCGCAAAGAAGTTATTAAGGGATAAATAATCCTTCAATATAAATATCTCTCACTTATTTAAA”: the “cleaved RNA product abundance” value runs as follows: under setting [3], 0.303; under setting [2], 0.338.

Take “CGACATGTCCCGCTTCTTTCATTAATCCGTTAGCAACTGTTTTACTATATACATTTACATTTTAAGAGGAGGAAT”: the “cleaved RNA product abundance” value under setting [1] came to 0.688. For “CGACATGTCCCGCTTCTTTCATTAAACCGTTAGCAACTGTTTTGATATATACATTTACCTTTTAAGAGGAGGAAT”, the “cleaved RNA product abundance” value under setting [1] was 0.428.

With “CGACATGTCCCGCTTCTTTCATTAATCCATTTGCAACTGTTTTGCTATATACATTTACCTTTTAAGAGGAGGAAT”, the “cleaved RNA product abundance” value under setting [1] came to 0.236. In the case of “ACAGACGAAGGAGCCGCTAAGAAGTTATTAAGGGATTAATAATCCCTCAATATAAATATCTCTCACTTATTTAAA”, under setting [2], the “cleaved RNA product abundance” value was found to be 1.02. On to “ACAGACGAAGGAGCCGCAAAGAAGTTATGAAGTGATGAATAATCCCTCAATATAAATATCTCTCACTTATTTAAA”, for which the “cleaved RNA product abundance” value is, setting by setting: under setting [3], 0.0796; under setting [2], 0.0812. With “CGACATGTCCCGCTTCTTTCATTAATCCGTTAGCAACTGTTTTGCTATACACATTTACATTTTAAGAGGAGGAAT”, under setting [1], the “cleaved RNA product abundance” value came out at 0.372. As to “ACAGACGAAGGAGCCGCAAAGAAATTAGTAAGGGATGAATAATCCCTCAATATAAATATCTCTCACTTATTTAAA”, the “cleaved RNA product abundance” value reads like this: under setting [3], 0.339; under setting [2], 0.34. As to “CGACATGTCCCGCTTCTTTCATTATGCCGTTAGCAACTGTTTTGCTATATACATTTACCTTTTAAGAGGAGGAAT”, the “cleaved RNA product abundance” value under setting [1] amounted to 1.32. On the same count and under the same terms, the figure for “CGACATGTCCCGCTTCTTTCATTACTCCGTTAGCAACTGTTTTGCAATATACATTTACCTTTTAAGAGGAGGAAT” is 0.515. On the same count and under the same terms, the figure for “CGACATGTCCCGCTTCTTTCATTACTCCGTTAGCAACTGTTTTGCTATATACATTTTCCTTTTAAGAGGAGGAAT” is 0.403. On to “ACAGACGAAGGAGCCGCAAAGAAGTTATTAAGGGATGAATAATTCCTCAAGATAAATATCTCTCACTTATTTAAA”, for which the “cleaved RNA product abundance” value under setting [3] turned out to be 0.146 and the “cleaved RNA product abundance” value under setting [2] amounted to 0.256. On to “ACAGACGAAGGAGCCGCAAAGAAGTTATAAAGGGATGACTAATCCCTCAATATAAATATCTCTCACTTATTTAAA”, for which the “cleaved RNA product abundance” value stood at 0.286 under setting [2] and 0.319 under setting [4]. In the case of “CGACATGTCCCGCTTCTTTCATTAATCCGTTAGCAACTGTTTTGCTATTTACACTTACCTTTTAAGAGGAGGAAT”, under setting [1], the “cleaved RNA product abundance” value stood at 0.12. As to “ACAGACGAAGGAGCCGCAAAGAAGTTACTAAGGGATGAATAATCGCTCAATATAAATATCTCTCACTTATTTAAA”, the “cleaved RNA product abundance” value by setting is: under setting [3], 0.0765; under setting [2], 0.0864.

“ACAGACGAAGGAGCCGCAAAGAAGTTATTAAGGGCTGAATAATCCCACAATATAAATATCTCTCACTTATTTAAA”: the “cleaved RNA product abundance” value under setting [2] was determined as 0.0873. For “ACAGACGAAGGAGCCGCAAAGAAGTTATTAAGGGATGAATAATCCCTCAGTATAAATATCTCTCACTTATTTAAA”, the “cleaved RNA product abundance” value runs as follows: under setting [3], 0.215; under setting [2], 0.305; under setting [4], 0.259.

Consider “ACAGACGAAGGAGCCGCAAAGAAATTATTAAGGGATAAATAATCCATCAATATAAATATCTCTCACTTATTTAAA”, for which, under setting [2], the “cleaved RNA product abundance” value was 0.216. Turning to “ACAGACGAAGGAGCCGCAAAGAAGCTATTAAGGAATGAATAATCCCTCAATATAAATATCTCTCACTTATTTAAA”, the “cleaved RNA product abundance” value amounted to 0.108 under setting [3] and 0.101 under setting [2]. Consider “ACAGACGAAGGAGCCGCAAAGAAGTTATTAAGGTATGAATAAGCCCTCAATATAAATATCTCTCACTTATTTAAA”, for which, under setting [2], the “cleaved RNA product abundance” value was 0.13. For “ACAGACGAAGGAGCCGCAAAGTAGTTATTAACGGATGAATAATCCCTCAATATAAATATCTCTCACTTATTTAAA”, the “cleaved RNA product abundance” value under setting [2] was 0.164. For “ACAGACGAAGGAGCCGCAAAGAAGTTATTAAGGGATGAATGATCCCTCAAAATAAATATCTCTCACTTATTTAAA”, the “cleaved RNA product abundance” value by setting is: under setting [3], 0.14; under setting [2], 0.149. Turning to “ACAGACGAAGGAGCCGCAAAGAAGTTATTAAGAGATGAATAATCCGTCAATATAAATATCTCTCACTTATTTAAA”, the “cleaved RNA product abundance” value under setting [3] came out at 0.0978 and the “cleaved RNA product abundance” value under setting [2] was determined as 0.0917.

“CGACATGTCCCGCTTCTTTCATTAATCCGTTAGCCACTGTTTTGCTATATACAGTTACCTTTTAAGAGGAGGAAT”: the “cleaved RNA product abundance” value under setting [1] came to 0.244. On to “ACAGACGAAGGAGCCGCAAAGAAGTTATTTAGGGTTGAATAATCCCTCAATATAAATATCTCTCACTTATTTAAA”, for which the “cleaved RNA product abundance” value by setting is: under setting [3], 0.225; under setting [2], 0.344.
